Data taken from US20100040600A1, “Agents for Promoting the Growth of Hematopoietic Stem Cells” (CHUGAI SEIYAKU KABUSHIKI KAISHA, priority 2006, published 2010).

Key:
[1] = test system: human cord blood cells (CD34-positive cells); conditions: with or without TPO treatment; single administration; cited from earlier work
mouse bone marrow = conditions: TPO administered to TPO-knockout mice; cited from earlier work
[2] = test system: human cord blood-derived CD34-positive cells; assay: Engraftment number of different human blood cell lineages in bone marrow of mice transplanted with human cord blood-derived hematopoietic stem cells (Example 1); type: in vivo, NOD.CB17-Prkdc<scid>/J mice
Text: Engraftment of transplanted hematopoietic stem cells in the bone marrow is required in hematopoietic stem cell transplantation. The present invention provides agents which comprise an agonist for the TPO receptor (c-mpl) as an active ingredient for enhancing the engraftment of transplanted CD34-positive hematopoietic cells in the bone marrow. The engraftment of transplanted CD34-positive hematopoietic cells (CD34-positive hematopoietic stem cells and CD34-positive hematopoietic precursor cells) in the bone marrow can be promoted by administering the agents of the present invention. The presence or absence, or the degree of engraftment of transplanted CD34-positive hematopoietic cells in the bone marrow (the engraftment rate of transplanted CD34-positive hematopoietic cells in the bone marrow) can be assessed, for example, by determining the absolute number of human CD34-positive hematopoietic cells in the bone marrow of NOD/SCID mice to which human hematopoietic cells are transplanted. Human cells can be identified among the mouse bone marrow cells by using a fluorescent-labeled, human CD34-specific antibody for detection. Specifically, the engraftment rate of transplanted CD34-positive hematopoietic cells in the bone marrow can be determined by the following procedures. First, NOD.CB17-Prkdc/J mice, to which human cord blood-derived CD34-positive cells have been transplanted, are euthanized three weeks after transplantation. The right and left femurs are collected, and then their epiphyseal portions are removed by scissors. Bone marrow cells are flushed out using a 26G-needle syringe and collected. After washing with IMDM containing 2% FBS, 5 ml of erythrocyte lysis solution is added, and the mixture is allowed to stand for five minutes. The mixture is centrifuged and supernatant is removed. Then, the precipitate is suspended in 2 ml of IMDM containing 2% FBS. The suspension is filtered through a 70-μm membrane to prepare a bone marrow cell suspension (2 ml/two femurs for each mouse). The cell suspension is aliquoted into 100-μl samples, and the cells are stained for 15 minutes with a fluorescent-labeled, human CD34-specific antibody and PI (final concentration: 2 μg/ml). After washing, 50 μl of Flow-Count fluorescent particles are added, and the engraftment number of human CD34-positive cells is determined using the EPICS XL cell analyzer. The determination may be performed, for example, according to Application Note 5: “Determination of the absolute number of cells using Flow-Count” (Beckman Coulter, Inc.). Likewise, the absolute number of different human blood cell lineages in the bone marrow can be determined using a variety of detection antibodies. The absolute number of human cells contained in the two femurs is represented by the following formula:
Absolute number of human cells=determined value (cells/μl)×1/2(Flow-Count amount added (50)/sample amount added (100))×2000 (2 ml/two femurs/mouse)
Mice used were acclimatized six-week-old male NOD.CB17-Prkdc/J. After systemic irradiation with 3.0 Gy of X-ray, an anti-asialo-GM1 antibody was intraperitoneally administered to the mice once every ten days from the day of irradiation. 5×10^4 human cord blood-derived CD34-positive cells were transplanted to each mouse at the caudal vein one day after irradiation. From the day after transplantation, the sc(Fv)2 antibody of SEQ ID NO: 73 was administered every day for ten consecutive days, and after that, administration was conducted for five days followed by two days of break. The doses were: 0.25 mg/5 ml/kg in the morning, and 2 mg/5 ml/kg in the evening. The antibody was subcutaneously administered at eight-hour intervals, twice a day for three weeks in total (n=10). 20 mmol/l citric acid buffer containing 0.02% Tween 80 was administered as a vehicle in the same way as the sc(Fv)2 antibody of SEQ ID NO: 73. The bone marrow was collected after three weeks transplantation, and FACS analysis was performed using EPIX XL. […]

human CFU-Meg colonies = assay: Number of human CFU-Meg colonies in bone marrow of mice transplanted with human cord blood-derived hematopoietic stem cells (Example 2); type: in vivo, NOD.CB17-Prkdc<scid>/J mice; conditions: vs vehicle-administered group; s.c. 0.25 + 2 mg/kg per day, three weeks; bone marrow cells cultured 13 days in MegaCult-C; FIG. 2
Protocol: Mice used were acclimatized six-week-old male NOD.CB17-Prkdc/J. After systemic irradiation with 3.0 Gy of X-ray, an anti-asialo-GM1 antibody was intraperitoneally administered to the mice once every ten days from the day of irradiation. 5×10^4 human cord blood-derived CD34-positive cells were transplanted to each mouse at the caudal vein one day after irradiation. From the day after transplantation, the sc(Fv)2 antibody of SEQ ID NO: 73 was administered every day for ten consecutive days, and then after that, administration was conducted for five days followed by two days of break. The antibody was subcutaneously administered at 0.25 mg/5 ml/kg in the morning and 2 mg/5 ml/kg in the evening, at eight-hour intervals, twice a day for three weeks in total (n=10). 20 mmol/l citric acid buffer containing 0.02% Tween 80 was administered as a vehicle in the same way as the sc(Fv)2 antibody of SEQ ID NO: 73. Bone marrow cells were collected after three weeks transplantation. Bone marrow cells contained in the mouse femurs were cultured with the sc(Fv)2 antibody of SEQ ID NO: 73 for 13 days using MegaCult-C (StemCell Technologies). The number of human CFU-Meg colonies was determined by counting CD41-positive colonies containing 50 or more cells under a light microscope.

[3] = test system: human cord blood-derived CD34-positive cells; assay: Dose-dependent effect on engraftment number of different human blood cell lineages in bone marrow of transplanted mice (Example 3); type: in vivo, NOD.CB17-Prkdc<scid>/J mice; conditions: high, medium, low dose s.c. for ten days, FIG. 3
Protocol: Mice used were acclimatized six-week-old male NOD.CB17-Prkdc/J. After systemic irradiation with 3.0 Gy of X-ray, an anti-asialo-GM1 antibody was intraperitoneally administered to the mice on the day of irradiation and eight days after irradiation. 5×10^4 human cord blood-derived CD34-positive cells were transplanted to each mouse at the caudal vein the day after irradiation. The sc(Fv)2 antibody of SEQ ID NO: 73 was administered every day for ten consecutive days from the day after the irradiation, according to the following three dosages (subcutaneous administration; n=9 for each group).
High-dose group (0.25 mg/kg in the morning, an eight-hour interval, and 2 mg/kg in the evening, per day)
Medium-dose group (0.05 mg/kg in the morning, an eight-hour interval, and 0.2 mg/kg in the evening, per day)
Low-dose group (0.01 mg/kg in the morning, an eight-hour interval, and 0.02 mg/kg in the evening, per day)
The dose was adjusted so that the minimum drug concentration in peripheral blood during the administration period is 50 ng/ml, 10 ng/ml, or 2 ng/ml in the high-, medium-, or low-dose group, respectively.
20 mmol/l sodium citrate/150 mM NaCl buffer (pH 6.5) containing 0.02% Tween 80 was administered as a vehicle in the same way as the sc(Fv)2 antibody of SEQ ID NO: 73. Bone marrow cells were collected after two weeks transplantation, and FACS analysis was performed. The absolute number of human cells was determined using Flow-Count (Beckman).

[4] = vs vehicle group, s.c. 0.25 + 2 mg/kg per day, three weeks, FIG. 1
[5] = two weeks after transplantation
[6] = summary statement of the inventors' findings

## TPO: cytokine that promotes growth and differentiation of megakaryocytic lineage cells; ligand for c-mpl
[1]
  frequencies of CD34 positive cells: did not differ significantly
Mouse bone marrow
  mouse bone marrow transplantation efficiency: increased

B1: sc(Fv)2 antibody of SEQ ID NO: 73: humanized sc(Fv)2 antibody comprising the amino acid sequence of SEQ ID NO: 73; c-mpl agonist (protein, listed as Homo sapiens)
chain: MDWTWRFLFVVAAATGVQSQVQLVQSGPEVKKPGASVKVSCKASGYTFTNSWMNWVRQRPGKGLEWIGRIYPGDGETIYNGKFRVRVTITADESTSTAYMQLSSLRSEDTAVYYCARGYDDYSFAYWGQGTTVTVSSGGGGSGGGGSGGGGSDIVMTQSPLSLPVTPGEPASISCRSSKSLLHSNGNTYLYWFLQKPGQSPQLLIYRMSNLASGVPDRFSGSGSGTDFTLKISRVEAEDVGVYYCMQHIEYPFTFGQGTKLEIKGGGGSGGGGSGGGGSQVQLVQSGPEVKKPGASVKVSCKASGYTFTNSWMNWVRQRPGKGLEWIGRIYPGDGETIYNGKFRVRVTITADESTSTAYMQLSSLRSEDTAVYYCARGYDDYSFAYWGQGTTVTVSSGGGGSGGGGSGGGGSDIVMTQSPLSLPVTPGEPASISCRSSKSLLHSNGNTYLYWFLQKPGQSPQLLIYRMSNLASGVPDRFSGSGSGTDFTLKISRVEAEDVGVYYCMQHIEYPFTFGQGTKLEIK
[2]; vs vehicle group, s.c. 0.25 mg/kg morning + 2 mg/kg evening, three weeks, bone marrow three weeks after transplantation, FIG. 1
  number of human CD34-positive cells in right and left femurs: statistically significantly increased
[2]; [4]
  number of CD19-positive cells in right and left femurs: statistically significantly increased
  number of CD33-positive cells in right and left femurs: statistically significantly increased
  number of CD41-positive cells in right and left femurs: statistically significantly increased
  number of CD45-positive cells in right and left femurs: statistically significantly increased
Human CFU-Meg colonies
  number of CFU-Meg colonies in the bone marrow: statistically significantly increased
[3]; bone marrow two weeks after transplantation
  number of CD34-positive cells in right and left femurs: increase in a dose-dependent manner
[3]; [5]
  number of CD19-positive cells in right and left femurs: increase in a dose-dependent manner
  number of CD33-positive cells in right and left femurs: increase in a dose-dependent manner
  number of CD38-positive cells in right and left femurs: increase in a dose-dependent manner
  number of CD41-positive cells in right and left femurs: increase in a dose-dependent manner
  number of CD45-positive cells in right and left femurs: increase in a dose-dependent manner

B2: VB22B sc(Fv)2: agonistic minibody against the TPO receptor; amino acid sequence of SEQ ID NO: 14 (protein, listed as Mus musculus)
chain: MEWPLIFLFLLSGTAGVHSQVQLQQSGPELVKPGASVKISCKASGYAFTNSWMNWVKQRPGKGLEWIGRIYPGDGETIYNGKFRVKATLTADKSSSTAYMDISSLTSEDSAVYFCARGYDDYSFAYWGQGTLVTVSAGGGGSGGGGSGGGGSDIVMTQAAPSIPVTPGESVSISCRSSKSLLHSNGNTYLYWFLQRPGQSPQLLIYRMSNLASGVPDRFSGSGSGTAFTLRISRVEAEDVGVYYCMQHIEYPFTFGSGTKLEIKGGGGSGGGGSGGGGSQVQLQQSGPELVKPGASVKISCKASGYAFTNSWMNWVKQRPGKGLEWIGRIYPGDGETIYNGKFRVKATLTADKSSSTAYMDISSLTSEDSAVYFCARGYDDYSFAYWGQGTLVTVSAGGGGSGGGGSGGGGSDIVMTQAAPSIPVTPGESVSISCRSSKSLLHSNGNTYLYWFLQRPGQSPQLLIYRMSNLASGVPDRFSGSGSGTAFTLRISRVEAEDVGVYYCMQHIEYPFTFGSGTKLEIK
[2]; [6]
  engraftment of transplanted human cord blood-derived hematopoietic stem cells (CD34-positive hematopoietic cells) in the bone marrow: enhanced the engraftment
  growth of multilineage blood precursor cells: induced significant growth
  human megakaryocyte-specific differentiation (increase of megakaryocytic cells): induced human megakaryocyte-specific differentiation
